Patent US20260022175A1 (Chugai, published 2026)
Residue numbers refer to the chain shown, from its start. Each block holds one binder with its values, some of them ahead of it.

Legend:
human CTLA4 [1] = molecular target: T1, human CTLA4 (human); test: SPR Biacore T200, 37C, antibody captured, ATP 10 uM
T1 construct: also called hCTLA4; hCTLA4-His-BAP

human CTLA4 [2] = molecular target: T1, human CTLA4; test: SPR Biacore T200, 37C, antibody captured, ADP 10 uM;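 further: antibodies held on a Protein G CM3 chip, human CTLA4 as analyte in ACES pH 7.4 buffer, rates from a global 1:1 Langmuir fit, Kd from rates or steady state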
Experimental: (§1) Biacore T200 was used to measure the binding of the generated antibodies to human CTLA4. 20 mM ACES (pH 7.4), 150 mM NaCl, 2 mM MgCl₂, 0.05% Tween 20 with ATP added to the desired concentration was used as the running buffer, and the assay was performed at 37° C. First, Protein G (CALBIOCHEM) was immobilized onto a Series S Sensor Chip CM3 (GE Healthcare), and the antibodies were captured by interacting an antibody solution prepared in an ATP-free running buffer with the chip. Next, by interacting with a human CTLA4 solution prepared in a running buffer containing ATP to the desired concentration, or a human CTLA4 solution prepared in a running buffer containing no ATP, the binding ability of the antibody to human CTLA4 in the presence or absence of ATP was evaluated. Chips were regenerated with 25 mM NaOH and 10 mM Glycine-HCl (pH 1.5), and assay was performed by repeatedly capturing antibodies. The dissociation constant of each antibody for CTLA4 was calculated using Biacore T200 Evaluation Software 2.0. Specifically, the binding rate constant ka (L/mol/s) and the dissociation rate constant kd (1/s) were calculated by global fitting of the sensorgrams obtained by the measurement, using a 1:1 Langmuir binding model. The dissociation constant KD (mol/L) was calculated from those values. Alternatively, the dissociation constant KD (mol/L) was calculated by the steady state model. In addition, the binding amount of CTLA4 per unit amount of antibody was calculated by correcting the amount of CTLA4 bound as calculated from the sensorgram obtained by the assay with the amount of antibody captured onto the chip surface.
(§2) The binding ability of the generated variants to human CTLA4 in the presence of ADP or AMP was evaluated by Biacore T200 and compared with the binding ability in the presence of ATP.

human CTLA4 [3] = molecular target: T1, human CTLA4; test: SPR Biacore T200, 37C, antibody captured, AMP 10 uM
Experimental: as §1, §2

human CTLA4 [4] = molecular target: T1, human CTLA4; test: SPR Biacore T200, 37C, antibody captured, ATP 10 uM; remark: listed apart in the source
Experimental: as §1, §2

human CTLA4 [5] = molecular target: T1, human CTLA4; test: SPR Biacore T200, 37C, antibody captured, no ATP, steady state model
Experimental: Biacore T200 was used to measure the binding of the generated antibodies to human CTLA4. 20 mM ACES (pH 7.4), 150 mM NaCl, 2 mM MgCl₂, 0.05% Tween 20 with ATP added to the desired concentration was used as the running buffer, and the assay was performed at 37° C. First, Protein G (CALBIOCHEM) was immobilized onto a Series S Sensor Chip CM3 (GE Healthcare), and the antibodies were captured by interacting an antibody solution prepared in an ATP-free running buffer with the chip. Next, by interacting with a human CTLA4 solution prepared in a running buffer containing ATP to the desired concentration, or a human CTLA4 solution prepared in a running buffer containing no ATP, the binding ability of the antibody to human CTLA4 in the presence or absence of ATP was evaluated. Chips were regenerated with 25 mM NaOH and 10 mM Glycine-HCl (pH 1.5), and assay was performed by repeatedly capturing antibodies. The dissociation constant of each antibody for CTLA4 was calculated using Biacore T200 Evaluation Software 2.0. Specifically, the binding rate constant ka (L/mol/s) and the dissociation rate constant kd (1/s) were calculated by global fitting of the sensorgrams obtained by the measurement, using a 1:1 Langmuir binding model. The dissociation constant KD (mol/L) was calculated from those values. Alternatively, the dissociation constant KD (mol/L) was calculated by the steady state model.

human CTLA4 [6] = molecular target: T1, human CTLA4; test: SPR Biacore T200, 37C, antibody captured, ATP 1 uM
Experimental: as §1

T1 sequence (chain, as listed by the source limits assumed): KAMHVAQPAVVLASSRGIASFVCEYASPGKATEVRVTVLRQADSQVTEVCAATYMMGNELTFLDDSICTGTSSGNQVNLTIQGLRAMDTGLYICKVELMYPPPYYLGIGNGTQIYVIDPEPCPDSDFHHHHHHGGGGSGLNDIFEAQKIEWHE

B1: 04H1637-G1m/04L1610-lam1 (antibody, human IgG1, lambda)
heavy: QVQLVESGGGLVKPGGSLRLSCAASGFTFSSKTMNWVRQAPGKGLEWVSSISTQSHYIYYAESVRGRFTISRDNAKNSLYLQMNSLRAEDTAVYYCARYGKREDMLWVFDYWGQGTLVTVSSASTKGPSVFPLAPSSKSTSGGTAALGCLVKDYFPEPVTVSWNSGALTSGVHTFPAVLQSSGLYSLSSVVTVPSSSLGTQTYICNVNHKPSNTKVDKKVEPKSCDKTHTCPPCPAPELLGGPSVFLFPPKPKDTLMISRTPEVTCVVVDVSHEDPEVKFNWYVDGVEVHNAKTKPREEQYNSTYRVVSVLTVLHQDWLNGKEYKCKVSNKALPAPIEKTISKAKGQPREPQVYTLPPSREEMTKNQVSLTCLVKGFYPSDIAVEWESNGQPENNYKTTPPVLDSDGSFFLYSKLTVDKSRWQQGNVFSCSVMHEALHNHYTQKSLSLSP
light: QSALTQPPSASGSPGQSVTISCEGPSTGVGDYNWVHWYQQHPGKAPKLMIYFTSKKPSGVPDRFSGSKSGNTASLTVSGLQAEDEADYYCQTYAAPLGPMFGGGTKLTVLGQPKAAPSVTLFPPSSEELQANKATLVCLISDFYPGAVTVAWKADSSPVKAGVETTTPSKQSNNKYAASSYLSLTPEQWKSHRSYSCQVTHEGSTVEKTVAPTECS
Kd (human CTLA4 [1]): 18 nM | Kd (human CTLA4 [2]): 22 nM | koff (human CTLA4 [2]): 0.0035 s⁻¹ | kon (human CTLA4 [2]): 160000 M⁻¹ s⁻¹ | Kd (human CTLA4 [3]): 70 nM | koff (human CTLA4 [3]): 0.01 s⁻¹ | kon (human CTLA4 [3]): 150000 M⁻¹ s⁻¹ | Kd (human CTLA4 [4]): 15 nM | koff (human CTLA4 [4]): 0.0019 s⁻¹ | kon (human CTLA4 [4]): 120000 M⁻¹ s⁻¹ | Kd (human CTLA4 [5]): 3300 nM | Kd (human CTLA4 [6]): 100 nM

B3: 04H1637-G1m/04L1086-lam1 (antibody, human IgG1, lambda)
heavy: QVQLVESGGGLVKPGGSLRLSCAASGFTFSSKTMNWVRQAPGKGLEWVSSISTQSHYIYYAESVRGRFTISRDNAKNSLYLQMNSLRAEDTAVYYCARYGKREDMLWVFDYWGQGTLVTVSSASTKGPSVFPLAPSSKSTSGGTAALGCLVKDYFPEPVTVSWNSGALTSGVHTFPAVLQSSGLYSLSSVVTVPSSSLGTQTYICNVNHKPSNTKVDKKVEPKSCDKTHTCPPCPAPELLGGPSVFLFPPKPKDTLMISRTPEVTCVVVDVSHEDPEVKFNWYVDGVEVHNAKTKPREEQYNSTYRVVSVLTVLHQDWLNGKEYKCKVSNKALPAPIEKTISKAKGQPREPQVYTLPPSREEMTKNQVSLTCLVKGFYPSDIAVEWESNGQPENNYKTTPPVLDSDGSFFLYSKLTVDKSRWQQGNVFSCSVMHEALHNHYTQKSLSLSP
light: B1 light with S17T, E23D, W34Y, Y89F
Kd (human CTLA4 [1]): 30 nM | Kd (human CTLA4 [5]): 5300 nM | Kd (human CTLA4 [6]): 160 nM

B4: 04H1637-G1m/04L1594-lam1 (antibody, human IgG1, lambda, V domains shown)
VH: QVQLVESGGGLVKPGGSLRLSCAASGFTFSSKTMNWVRQAPGKGLEWVSSISTQSHYIYYAESVRGRFTISRDNAKNSLYLQMNSLRAEDTAVYYCARYGKREDMLWVFDYWGQGTLVTVSS
VL: QSALTQPPSASGSPGQSVTISCQGPSTGVGDYNWVHWYQQHPGKAPKLMIYFTSKKPKGVPDRFSGSKSGNTASLTVSGLQAEDEADYYCQTYAAPLGPMFGGGTKLTVLG
Kd (human CTLA4 [1]): 28 nM | Kd (human CTLA4 [5]): 4300 nM | Kd (human CTLA4 [6]): 140 nM

B6: 04H1389v373-G1m/04L1086-lam1 (antibody, human IgG1, lambda)
heavy: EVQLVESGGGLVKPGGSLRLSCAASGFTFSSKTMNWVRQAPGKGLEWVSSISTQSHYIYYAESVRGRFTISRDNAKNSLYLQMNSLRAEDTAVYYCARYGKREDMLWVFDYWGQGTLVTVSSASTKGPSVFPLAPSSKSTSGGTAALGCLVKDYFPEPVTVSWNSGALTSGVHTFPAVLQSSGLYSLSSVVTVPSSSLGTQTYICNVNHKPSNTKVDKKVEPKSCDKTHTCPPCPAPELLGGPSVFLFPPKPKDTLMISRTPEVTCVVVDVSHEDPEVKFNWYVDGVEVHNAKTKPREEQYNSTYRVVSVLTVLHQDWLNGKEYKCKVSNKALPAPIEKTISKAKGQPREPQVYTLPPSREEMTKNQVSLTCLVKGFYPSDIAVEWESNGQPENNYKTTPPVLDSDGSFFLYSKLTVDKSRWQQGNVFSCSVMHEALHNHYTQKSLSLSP
light: B1 light with S17T, E23D, W34Y, Y89F
Kd (human CTLA4 [1]): 28 nM | Kd (human CTLA4 [5]): 5300 nM | Kd (human CTLA4 [6]): 140 nM

Next, values leading:

Kd (human CTLA4 [1]): 14 nM | Kd (human CTLA4 [5]): 2800 nM | Kd (human CTLA4 [6]): 89 nM
B2: 04H1643-G1m/04L1610-lam1 (antibody, human IgG1, lambda)
heavy: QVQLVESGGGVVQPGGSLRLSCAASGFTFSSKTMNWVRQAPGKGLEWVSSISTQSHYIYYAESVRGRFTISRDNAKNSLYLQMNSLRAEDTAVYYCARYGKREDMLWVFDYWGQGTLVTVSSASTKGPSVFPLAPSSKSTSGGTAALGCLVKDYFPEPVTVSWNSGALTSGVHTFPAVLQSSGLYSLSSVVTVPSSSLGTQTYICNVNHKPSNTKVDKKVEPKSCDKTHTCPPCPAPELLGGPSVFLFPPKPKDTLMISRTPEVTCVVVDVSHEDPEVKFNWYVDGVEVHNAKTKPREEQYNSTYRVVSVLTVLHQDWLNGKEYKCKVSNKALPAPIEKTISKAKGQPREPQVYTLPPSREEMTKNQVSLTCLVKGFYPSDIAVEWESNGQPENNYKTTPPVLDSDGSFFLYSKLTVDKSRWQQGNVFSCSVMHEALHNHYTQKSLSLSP
light: B1 light

Kd (human CTLA4 [1]): 17 nM | Kd (human CTLA4 [5]): 3200 nM | Kd (human CTLA4 [6]): 89 nM
B5: 04H1637-G1m/04L1581-lam1 (antibody, human IgG1, lambda, V domains shown)
VH: B4 VH
VL: B4 VL with N33T, S54I

Kd (human CTLA4 [1]): 19 nM | Kd (human CTLA4 [2]): 30 nM | koff (human CTLA4 [2]): 0.0048 s⁻¹ | kon (human CTLA4 [2]): 160000 M⁻¹ s⁻¹ | Kd (human CTLA4 [3]): 100 nM | koff (human CTLA4 [3]): 0.016 s⁻¹ | kon (human CTLA4 [3]): 160000 M⁻¹ s⁻¹ | Kd (human CTLA4 [4]): 19 nM | koff (human CTLA4 [4]): 0.0022 s⁻¹ | kon (human CTLA4 [4]): 120000 M⁻¹ s⁻¹ | Kd (human CTLA4 [5]): 2300 nM | Kd (human CTLA4 [6]): 95 nM
B7: 04H1656-G1m/04L1606-lam1 (antibody, human IgG1, lambda, V domains shown)
VH: B4 VH with L11V, K13Q, K101A
VL: B4 VL with K58S

Kd (human CTLA4 [1]): 25 nM | Kd (human CTLA4 [2]): 35 nM | koff (human CTLA4 [2]): 0.0028 s⁻¹ | kon (human CTLA4 [2]): 80000 M⁻¹ s⁻¹ | Kd (human CTLA4 [3]): 110 nM | koff (human CTLA4 [3]): 0.009 s⁻¹ | kon (human CTLA4 [3]): 81000 M⁻¹ s⁻¹ | Kd (human CTLA4 [4]): 21 nM | koff (human CTLA4 [4]): 0.0013 s⁻¹ | kon (human CTLA4 [4]): 65000 M⁻¹ s⁻¹ | Kd (human CTLA4 [5]): 6800 nM | Kd (human CTLA4 [6]): 140 nM
B8: 04H1654-G1m/04L1606-lam1 (antibody, human IgG1, lambda, V domains shown)
VH: B4 VH with L11V, K13Q, E62R
VL: B4 VL with K58S
